Reference: IntAct's records for PubMed 22634751

B1: Cyclin-dependent kinase inhibitor 1C (Homo sapiens), P49918 (parent)
chain: MSDASLRSTSTMERLVARGTFPVLVRTSACRSLFGPVDHEELSRELQARLAELNAEDQNRWDYDFQQDMPLRGPGRLQWTEVDSDSVPAFYRETVQVGRCRLLLAPRPVAVAVAVSPPLEPAAESLDGLEEAPEQLPSVPVPAPASTPPPVPVLAPAPAPAPAPVAAPVAAPVAVAVLAPAPAPAPAPAPAPAPVAAPAPAPAPAPAPAPAPAPAPDAAPQESAEQGANQGQRGQEPLADQLHSGISGRPAAGTAAASANGAAIKKLSGPLISDFFAKRKRSAPEKSSGDVPAPCPSPSAAPGVGSVEQTPRKRLR

Variants of: B1
Settings: with pcna_human PCNA

| effect of a mutation on the interaction | Variant |
| --- | --- |
| disrupting interaction | K278E |
| disrupting interaction | F276V |
